The values below come from the supplement of paper PMC10724198.

The subject of this data set is Saccharomyces cerevisiae. The data set is described as follows: protein stability index of tFT-peptide fusion (C-terminal peptide) (PSI (0-1 scale)); higher = more stable (slower turnover). The conditions noted are these: temperature: 30 C. How it is done: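 MPS profiling in S. cerevisiae of the yeast C-terminome library: the last 12 aa of each annotated ORF are fused to the C-terminus of a sfGFP-mCherry timer, after a GGGS linker. Cells are FACS-sorted into 8 mCherry/sfGFP bins and deep-sequenced. PSI runs from 0 (unstable) to 1 (stable); wild type and das1Δ backgrounds, two technical replicates each.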

The mark [1] stands for this setting: genetic background: das1 deletion.

± gives the standard deviation of the averaged measurements.

Consider AGADNTARLWTT [ERB1 C-terminal 12 aa], for which the protein stability index stood at 0.722 ± 0.014 under setting [1] and 0.736 ± 0.056 (genetic background: wild type).

AGTDKSQRCAIM [GIS4 C-terminal 12 aa]: the protein stability index runs as follows: under setting [1], 0.758 ± 0.018; (genetic background: wild type) 0.695 ± 0.056.

AGVNSARGVLRI [SFT2 C-terminal 12 aa]: the protein stability index reads like this: under setting [1], 0.6898 ± 0.0045; (genetic background: wild type) 0.71 ± 0.023.

For “AIAPTSLLTPMP [YER087C-A C-terminal 12 aa]”, the protein stability index under setting [1] was 0.6937 ± 0.0021 and the protein stability index (genetic background: wild type) came out at 0.733 ± 0.013.

With AIARCALGETLL [CAR1 C-terminal 12 aa], the protein stability index is, setting by setting: under setting [1], 0.685 ± 0.011; (genetic background: wild type) 0.641 ± 0.011.

Take AKAQSQALVTGM [PCL6 C-terminal 12 aa]: the protein stability index was determined as 0.6806 ± 0.0011 under setting [1] and 0.685 ± 0.035 (genetic background: wild type).

On to AKKKKKRIRGFG [RRN6 C-terminal 12 aa], for which the protein stability index runs as follows: under setting [1], 0.686 ± 0.015; (genetic background: wild type) 0.671 ± 0.034.

Turning to ALHSEEASFHSL [AIM21 C-terminal 12 aa], the protein stability index is, setting by setting: under setting [1], 0.709 ± 0.012; (genetic background: wild type) 0.7 ± 0.021.

With ALKLRALEKLSF [NCS6 C-terminal 12 aa], the protein stability index under setting [1] amounted to 0.711 ± 0.014 and the protein stability index (genetic background: wild type) was found to be 0.697 ± 0.037.

In the case of ALLILVLGWFYR [SCS2 C-terminal 12 aa], the protein stability index runs as follows: under setting [1], 0.405 ± 0.027; (genetic background: wild type) 0.4 ± 0.0047.

Take ALPNWNTPYLRR [UCC1 C-terminal 12 aa]: the protein stability index amounted to 0.719 ± 0.015 under setting [1] and 0.746 ± 0.023 (genetic background: wild type).

As to ANHNNQRAGYFL [SIT4 C-terminal 12 aa], the protein stability index by setting is: under setting [1], 0.699 ± 0.02; (genetic background: wild type) 0.652 ± 0.015.

On to ANKKARHFNNSA [VAM7 C-terminal 12 aa], for which the protein stability index reads like this: under setting [1], 0.687 ± 0.017; (genetic background: wild type) 0.698 ± 0.019.

Turning to ANMAAYDKAIHC [LPD1 C-terminal 12 aa], the protein stability index is, setting by setting: under setting [1], 0.681 ± 0.018; (genetic background: wild type) 0.708 ± 0.033.

For ANTHSSLICSKP [YBR209W C-terminal 12 aa], the protein stability index is, setting by setting: under setting [1], 0.6854 ± 0.0039; (genetic background: wild type) 0.701 ± 0.044.

Regarding APVAAGESESSL [SRO9 C-terminal 12 aa], the protein stability index was found to be 0.6991 ± 0.0048 under setting [1] and 0.687 ± 0.007 (genetic background: wild type).

On to ARNIWRLFLQKI [YLR126C C-terminal 12 aa], for which the protein stability index runs as follows: under setting [1], 0.705 ± 0.058; (genetic background: wild type) 0.168 ± 0.0098.

Take ASIGSDIVNNIF [PIN3 C-terminal 12 aa]: the protein stability index under setting [1] came out at 0.712 ± 0.032 and the protein stability index (genetic background: wild type) was 0.711 ± 0.04.

For the sequence ASLVFPKEKQNV [APC4 C-terminal 12 aa], the protein stability index under setting [1] was found to be 0.718 ± 0.034 and the protein stability index (genetic background: wild type) amounted to 0.6902 ± 0.00072.

ATTSLNNPYGFR [TOS7 C-terminal 12 aa]: the protein stability index runs as follows: under setting [1], 0.675 ± 0.0069; (genetic background: wild type) 0.663 ± 0.03.

For the sequence AVDYILRLFGFL [COQ2 C-terminal 12 aa], the protein stability index by setting is: under setting [1], 0.72 ± 0.013; (genetic background: wild type) 0.537 ± 0.019.

“AVGPRQTGEECR [YER088W-B C-terminal 12 aa]”: the protein stability index runs as follows: under setting [1], 0.695 ± 0.0098; (genetic background: wild type) 0.66899 ± 0.00042.

Consider AYFPQKYKHKYI [PRM6 C-terminal 12 aa], for which the protein stability index worked out at 0.689 ± 0.0077 under setting [1] and 0.5656 ± 0.004 (genetic background: wild type).

Consider CERCKSELQSVH [SET6 C-terminal 12 aa], for which the protein stability index is, setting by setting: under setting [1], 0.686 ± 0.0084; (genetic background: wild type) 0.663 ± 0.03.

CEVYCSKNSCAS [YBR099C C-terminal 12 aa]: the protein stability index was determined as 0.6895 ± 0.0012 under setting [1] and 0.661 ± 0.031 (genetic background: wild type).

CFLIGSSDTTSL [OPI6 C-terminal 12 aa]: the protein stability index by setting is: under setting [1], 0.7045 ± 0.0014; (genetic background: wild type) 0.691 ± 0.028.

On to CIAKKVKTYWNK [YIL024C C-terminal 12 aa], for which the protein stability index worked out at 0.68219 ± 0.00014 under setting [1] and 0.676 ± 0.023 (genetic background: wild type).

As for CIGDTDYIERYD [CDA1 C-terminal 12 aa], the protein stability index stood at 0.694 ± 0.015 under setting [1] and 0.685 ± 0.031 (genetic background: wild type).

For CIISIVVFPTCI [BIO5 C-terminal 12 aa], the protein stability index runs as follows: under setting [1], 0.286 ± 0.016; (genetic background: wild type) 0.285 ± 0.0088.

For the sequence CIVNLASDTISL [YOL150C C-terminal 12 aa], the protein stability index is 0.709 ± 0.0077 under setting [1] and 0.667 ± 0.01 (genetic background: wild type).

Take CKATSLLLIPEG [YBL108W C-terminal 12 aa]: the protein stability index reads like this: under setting [1], 0.675 ± 0.018; (genetic background: wild type) 0.659 ± 0.021.

Turning to CLFRYKQLPRRV [MCH2 C-terminal 12 aa], the protein stability index by setting is: under setting [1], 0.69 ± 0.073; (genetic background: wild type) 0.687 ± 0.029.

CLQTESETDIET [LIF1 C-terminal 12 aa]: the protein stability index reads like this: under setting [1], 0.661 ± 0.0085; (genetic background: wild type) 0.674 ± 0.013.

As to CLRKSPPFVHNT [YMR084W C-terminal 12 aa], the protein stability index runs as follows: under setting [1], 0.6939 ± 0.0044; (genetic background: wild type) 0.703 ± 0.022.

Turning to CTIQKMREKANT [YNL028W C-terminal 12 aa], the protein stability index reads like this: under setting [1], 0.677 ± 0.027; (genetic background: wild type) 0.723 ± 0.062.

On to CVDCGTVVNNFR [LAF1 C-terminal 12 aa], for which the protein stability index is 0.723 ± 0.019 under setting [1] and 0.688 ± 0.025 (genetic background: wild type).

As to “CVWESMSNWLQK [YEL034C-A C-terminal 12 aa]”, the protein stability index is, setting by setting: under setting [1], 0.7238 ± 0.00042; (genetic background: wild type) 0.724 ± 0.015.

For the sequence DAAIVKKYKNKT [NUP57 C-terminal 12 aa], the protein stability index under setting [1] amounted to 0.687 ± 0.025 and the protein stability index (genetic background: wild type) is 0.692 ± 0.033.

DDDEDGYNPYTL [PAP2 C-terminal 12 aa] registered a protein stability index under setting [1] of 0.7215 ± 0.0049 and a protein stability index (genetic background: wild type) of 0.697 ± 0.0073.

DDGTKNFIFKNK [ECM23 C-terminal 12 aa] displayed a protein stability index under setting [1] of 0.7072 ± 0.0034 and a protein stability index (genetic background: wild type) of 0.706 ± 0.031.

In the case of DDNDDGDDDDDW [MYO3 C-terminal 12 aa], the protein stability index by setting is: under setting [1], 0.68701 ± 0.00044; (genetic background: wild type) 0.7087 ± 0.0034.

DDNDDSDEREIW [UBR1 C-terminal 12 aa]: the protein stability index stood at 0.699 ± 0.031 under setting [1] and 0.71 ± 0.029 (genetic background: wild type).

On to DDNDTSAYYEDN [GSY1 C-terminal 12 aa], for which the protein stability index was 0.689 ± 0.0083 under setting [1] and 0.803 ± 0.073 (genetic background: wild type).

Regarding DEASGTPDEDML [GRR1 C-terminal 12 aa], the protein stability index by setting is: under setting [1], 0.6796 ± 0.0046; (genetic background: wild type) 0.693 ± 0.034.

On to DEERPSKKPKVE [POB3 C-terminal 12 aa], for which the protein stability index came out at 0.7314 ± 0.0054 under setting [1] and 0.745 ± 0.02 (genetic background: wild type).

Turning to DEGVSLVFEVPN [SQT1 C-terminal 12 aa], the protein stability index runs as follows: under setting [1], 0.683 ± 0.02; (genetic background: wild type) 0.677 ± 0.012.

With DENRHSIRIPFN [USB1 C-terminal 12 aa], the protein stability index was found to be 0.704 ± 0.015 under setting [1] and 0.688 ± 0.013 (genetic background: wild type).

Regarding DFPHEAVVREML [TVP18 C-terminal 12 aa], the protein stability index came to 0.7167 ± 0.0023 under setting [1] and 0.6914 ± 0.0026 (genetic background: wild type).

For DFQNCFPRQRIL [DFP2 C-terminal 12 aa], the protein stability index is, setting by setting: under setting [1], 0.7035 ± 0.0037; (genetic background: wild type) 0.2848 ± 0.0028.

DFVDMYQTEHSG [MTF1 C-terminal 12 aa]: the protein stability index runs as follows: under setting [1], 0.712 ± 0.0088; (genetic background: wild type) 0.7301 ± 0.0034.
